This note sets out measurements from patent US20140162952A1 (ONCOTHERAPY SCIENCE, published 2014).

Where two headings read alike, the source gives them in different places.

Assay [1] deals with T1, HA-PHB2 (HA-tagged PHB2 construct) (human, UniProt Q99623 1-299, limits assumed).
T1 construct: Expressed by transfection in COS-7 or HEK293T cells; also called PHB2/REA construct; HA-tagged PHB2/REA (WT); not shown: HA tag
Description: co-IP from COS-7 cells co-transfected with a Flag-ERAP1 construct and HA-PHB2; IP anti-Flag, IB anti-HA.

For assay [2], the target named is T1, HA-PHB2 (HA-tagged PHB2 construct). The assay is described as above. The source holds these as a separate data set.
Assay [3] has the same target. Description: COS-7 co-transfection with the PHB2/REA construct, IP with anti-HA antibody, immunoblot. Background: Immunoblotting shows a protein as a band on a membrane.
For assay [4] the target is unchanged. Description: COS-7 co-transfection with the PHB2/REA construct, IP with anti-FLAG antibody, immunoblot.
For assay [5] the target is unchanged. Description: co-immunoprecipitation from COS-7 cells, IP anti-FLAG, blot anti-HA (second experiment).

T1 sequence (Q99623 whole entry): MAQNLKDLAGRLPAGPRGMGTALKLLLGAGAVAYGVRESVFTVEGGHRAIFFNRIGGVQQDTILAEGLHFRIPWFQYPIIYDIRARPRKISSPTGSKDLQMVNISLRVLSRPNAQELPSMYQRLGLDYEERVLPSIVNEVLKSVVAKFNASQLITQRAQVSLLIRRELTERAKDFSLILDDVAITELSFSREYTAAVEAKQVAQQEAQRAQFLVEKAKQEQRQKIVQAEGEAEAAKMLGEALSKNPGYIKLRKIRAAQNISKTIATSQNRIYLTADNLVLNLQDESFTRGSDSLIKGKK

B1: ERAP1 1468-2177 (Flag-ERAP1) (other, not shown: small tags and cut ends)
chain: CPRQHQPPTLDLLFELLRDVTKTPGPGFGIYAVVHLLLPVMSVWLRRSHKDHSYWDMASANFKHAIGLSCELVVEHIQSFLHSDIRYESMINTMLKDLFELLVACVAKPTETISRVGCSCIRYVLVTAGPVFTEEMWRLACCALQDAFSATLKPVKDLLGCFHSGTESFSGEGCQVRVAAPSSSPSAEAEYWRIRAMAQQVFMLDTQCSPKTPNNFDHAQSCQLIIELPPDEKPNGHTKKSVSFREIVVSLLSHQVLLQNLYDILLEEFVKGPSPGEEKTIQVPEAKLAGFLRYISMQNLAVIFDLLLDSYRTAREFDTSPGLKCLLKKVSGIGGAANLYRQSAMSFNIYFHALVCAVLTNQETITAEQVKKVLFEDDERSTDSSQQCSSEDEDIFEETAQVSPPRGKEKRQWRARMPLLSVQPVSNADWVWLVKRLHKLCMELCNNYIQMHLDLENCMEEPPIFKGDPFFILPSFQSESSTPSTGGFSGKETPSEDDRSQSREHMGESLSLKAGGGDLLLPPSPKVEKKDPSRKKEWWENAGNKIYTMAADKTISKLMTEYKKRKQQHNLSAFPKEVKVEKKGEPLGPRGQDSPLLQRPQHLMDQGQMRHSFSAGPELLRQDKRPRSGSTGSSLSVSVRDAEAQIQAWTNMVLTVLNQIQILPDQTFTALQPAVFPCISQLTCHVTDIRVRQAVREWLGRVGRVYDIIV
notes: deletion construct
As to B1, in assay [1], the binding result is “no binding”.

B2: Flag-ERAP1 1-100 (other, not shown: small tags and cut ends)
chain: MEEILRKLQKEASGSKYKAIKESCTWALETLGGLDTIVKIPPHVLREKCLLPLQLALESKNVKLAQHALAGMQKLLSEERFVSMETDSDEKQLLNQILNA
notes: deletion construct
In the case of B2, the binding result in assay [2] is listed as “no binding”.

B3: Flag-ERAP1 1-250 (other, not shown: small tags and cut ends)
chain: MEEILRKLQKEASGSKYKAIKESCTWALETLGGLDTIVKIPPHVLREKCLLPLQLALESKNVKLAQHALAGMQKLLSEERFVSMETDSDEKQLLNQILNAVKVTPSLNEDLQVEVMKVLLCITYTPTFDLNGSAVLKIAEVCIETYISSCHQRSINTAVRATLSQMLSDLTLQLRQRQENTIIENPDVPQDFGNQGSTVESLCDDVVSVLTVLCEKLQAAINDSQQLQLLYLECILSVLSSSSSSMHLHR
notes: deletion construct
With B3, the binding result in assay [2] is on record as “binds”.

B4: ERAP1 435-2177 (Flag-ERAP1) (other, not shown: small tags and cut ends)
chain: GALDELSQGKGLSEGQVQLLLLRLEELKDGAEWSRDSMEINEADFRWQRRVLSSEHTPWESGNERSLDISISVTTDTGQTTLEGELGQTTPEDHSGNHKNSLKSPAIPEGKETLSKVLETEAVDQPDVVQRSHTVPYPDITNFLSVDCRTRSYGSRYSESNFSVDDQDLSRTEFDSCDQYSMAAEKDSGRSDVSDIGSDNCSLADEEQTPRDCLGHRSLRTAALSLKLLKNQEADQHSARLFIQSLEGLLPRLLSLSNVEEVDTALQNFASTFCSGMMHSPGFDGNSSLSFQMLMNADSLYTAAHCALLLNLKLSHGDYYRKRPTLAPGVMKDFMKQVQTSGVLMVFSQAWIEELYHQVLDRNMLGEAGYWGSPEDNSLPLITMLTDIDGLESSAIGGQLMASAATESPFAQSRRIDDSTVAGVAFARYILVGCWKNLIDTLSTPLTGRMAGSSKGLAFILGAEGIKEQNQKERDAICMSLDGLRKAARLSCALGVAANCASALAQMAAASCVQEEKEEREAQEPSDAITQVKLKVEQKLEQIGKVQGVWLHTAHVLCMEAILSVGLEMGSHNPDCWPHVFRVCEYVGTLEHNHFSDGASQPPLTISQPQKATGSAGLLGDPECEGSPPEHSPEQGRSLSTAPVVQPLSIQDLVREGSRGRASDFRGGSLMSGSSAAKVVLTLSTQADRLFEDATDKLNLMALGGFLYQLKKASQSQLFHSVTDTVDYSLAMPGEVKSTQDRKSALHLFRLGNAMLRIVRSKARPLLHVMRCWSLVAPHLVEAACHKERHVSQKAVSFIHDILTEVLTDWNEPPHFHFNEALFRPFERIMQLELCDEDVQDQVVTSIGELVEVCSTQIQSGWRPLFSALETVHGGNKSEMKEYLVGDYSMGKGQAPVFDVFEAFLNTDNIQVFANAATSYIMCLMKFVKGLGEVDCKEIGDCAPAPGAPSTDLCLPALDYLRRCSQLLAKIYKMPLKPIFLSGRLAGLPRRLQEQSASSEDGIESVLSDFDDDTGLIEVWIILLEQLTAAVSNCPRQHQPPTLDLLFELLRDVTKTPGPGFGIYAVVHLLLPVMSVWLRRSHKDHSYWDMASANFKHAIGLSCELVVEHIQSFLHSDIRYESMINTMLKDLFELLVACVAKPTETISRVGCSCIRYVLVTAGPVFTEEMWRLACCALQDAFSATLKPVKDLLGCFHSGTESFSGEGCQVRVAAPSSSPSAEAEYWRIRAMAQQVFMLDTQCSPKTPNNFDHAQSCQLIIELPPDEKPNGHTKKSVSFREIVVSLLSHQVLLQNLYDILLEEFVKGPSPGEEKTIQVPEAKLAGFLRYISMQNLAVIFDLLLDSYRTAREFDTSPGLKCLLKKVSGIGGAANLYRQSAMSFNIYFHALVCAVLTNQETITAEQVKKVLFEDDERSTDSSQQCSSEDEDIFEETAQVSPPRGKEKRQWRARMPLLSVQPVSNADWVWLVKRLHKLCMELCNNYIQMHLDLENCMEEPPIFKGDPFFILPSFQSESSTPSTGGFSGKETPSEDDRSQSREHMGESLSLKAGGGDLLLPPSPKVEKKDPSRKKEWWENAGNKIYTMAADKTISKLMTEYKKRKQQHNLSAFPKEVKVEKKGEPLGPRGQDSPLLQRPQHLMDQGQMRHSFSAGPELLRQDKRPRSGSTGSSLSVSVRDAEAQIQAWTNMVLTVLNQIQILPDQTFTALQPAVFPCISQLTCHVTDIRVRQAVREWLGRVGRVYDIIV
Consider B4, for which the binding result in assay [1] is “no binding”.

B5: ERAP1 alanine mutant of D169 (D169A) (other)
chain: MEEILRKLQKEASGSKYKAIKESCTWALETLGGLDTIVKIPPHVLREKCLLPLQLALESKNVKLAQHALAGMQKLLSEERFVSMETDSDEKQLLNQILNAVKVTPSLNEDLQVEVMKVLLCITYTPTFDLNGSAVLKIAEVCIETYISSCHQRSINTAVRATLSQMLSALTLQLRQRQENTIIENPDVPQDFGNQGSTVESLCDDVVSVLTVLCEKLQAAINDSQQLQLLYLECILSVLSSSSSSMHLHRRFTDLIWKNLCPALIVILGNPIHDKTITSAHTSSTSTSLESDSASPGVSDHGRGSGCSCTAPALSGPVARTIYYIAAELVRLVGSVDSMKPVLQSLYHRVLLYPPPQHRVEAIKIMKEILGSPQRLCDLAGPSSTESESRKRSISKRKSHLDLLKLIMDGMTEACIKGGIEACYAAVSCVCTLL
notes: also called D169 mutant construct; not shown: Flag tag
With B5, the figures for the “coprecipitation band, ratio when that with ERAP1 (1-434 aa) is designated as 100” value in assay [3] and in assay [4] were 0% and 22%, respectively. In addition, the “ratio of the coprecipitated band (ERAP1 1-434 = 100)” value in assay [5] came to 33.

B6: ERAP1 alanine mutant of Q165 (Q165A) (other)
chain: MEEILRKLQKEASGSKYKAIKESCTWALETLGGLDTIVKIPPHVLREKCLLPLQLALESKNVKLAQHALAGMQKLLSEERFVSMETDSDEKQLLNQILNAVKVTPSLNEDLQVEVMKVLLCITYTPTFDLNGSAVLKIAEVCIETYISSCHQRSINTAVRATLSAMLSDLTLQLRQRQENTIIENPDVPQDFGNQGSTVESLCDDVVSVLTVLCEKLQAAINDSQQLQLLYLECILSVLSSSSSSMHLHRRFTDLIWKNLCPALIVILGNPIHDKTITSAHTSSTSTSLESDSASPGVSDHGRGSGCSCTAPALSGPVARTIYYIAAELVRLVGSVDSMKPVLQSLYHRVLLYPPPQHRVEAIKIMKEILGSPQRLCDLAGPSSTESESRKRSISKRKSHLDLLKLIMDGMTEACIKGGIEACYAAVSCVCTLL
notes: also called Q165 mutant construct; not shown: Flag tag
Regarding B6, the entries for the “coprecipitation band, ratio when that with ERAP1 (1-434 aa) is designated as 100” value in assay [3] and in assay [4] were 24% and 60%, respectively. The “ratio of the coprecipitated band (ERAP1 1-434 = 100)” value in assay [5] is 63.
